The target of the assay is AC domain (catalytic domain) of Bordetella pertussis adenylate cyclase toxin, recombinant (Bordetella pertussis) (UniProt J7QLC0). Kind of assay: SPR competition: AC domain (10 µM) pre-mixed with CaM and injected over an FHA-coated chip.

For Calmodulin (from UniProt P0DP23 2-149), the percent reduction of AC domain binding to FHA is 75%.

The values above are taken from patent US20190111106A1.
